{
  "source": "the Human Domainome abundance scans (Beltran et al. 2025)",
  "parents": {"B1": {"name": "PDZ and LIM domain protein 2, residues 284 to 339; numbered along this chain, Q96JY6 (parent)", "chain": "HTCEKCSTSIANQAVRIQEGRYRHPGCYTCADCGLNLKMRGHFWVGDELYCEKHAR"}},
  "note": "± gives the uncertainty stated by the source.",
  "data": [
    {"variants_of": "B1", "assay": "abundance fitness (aPCA) (normalised: wild type 0, dead -1); higher = more abundant; growth selection in yeast, the domain comes from the species named", "conditions": "Homo sapiens", "values": [
      {"variant": "HTCEKCSTSIANQAVRIQELRYRHPGCYTCADCGLNLKMRGHFWVGDELYCEKHAR", "note": "[G20L]", "abundance fitness": "-0.452 ± 0.087"},
      {"variant": "HTCEKCSTSIANQAVRIQEFRYRHPGCYTCADCGLNLKMRGHFWVGDELYCEKHAR", "note": "[G20F]", "abundance fitness": "0.116 ± 0.12"},
      {"variant": "HTCEKCSTSIANQAVRIQEMRYRHPGCYTCADCGLNLKMRGHFWVGDELYCEKHAR", "note": "[G20M]", "abundance fitness": "-0.154 ± 0.068"},
      {"variant": "HTCEKCSTSIANQAVRIQERRYRHPGCYTCADCGLNLKMRGHFWVGDELYCEKHAR", "note": "[G20R]", "abundance fitness": "-0.136 ± 0.063"},
      {"variant": "HTCEKCSTSIANQAVRIQEPRYRHPGCYTCADCGLNLKMRGHFWVGDELYCEKHAR", "note": "[G20P]", "abundance fitness": "-0.63 ± 0.13"},
      {"variant": "HTCEKCSTSIANQAVRIQEVRYRHPGCYTCADCGLNLKMRGHFWVGDELYCEKHAR", "note": "[G20V]", "abundance fitness": "-0.363 ± 0.069"},
      {"variant": "HTCEKCSTSIANQAVRIQEWRYRHPGCYTCADCGLNLKMRGHFWVGDELYCEKHAR", "note": "[G20W]", "abundance fitness": "-0.497 ± 0.12"},
      {"variant": "HTCEKCSTSIANQAVRIQENRYRHPGCYTCADCGLNLKMRGHFWVGDELYCEKHAR", "note": "[G20N]", "abundance fitness": "0.006 ± 0.081"},
      {"variant": "HTCEKCSTSIANQAVRIQEYRYRHPGCYTCADCGLNLKMRGHFWVGDELYCEKHAR", "note": "[G20Y]", "abundance fitness": "-0.174 ± 0.082"},
      {"variant": "HTCEKCSTSIANQAVRIQEQRYRHPGCYTCADCGLNLKMRGHFWVGDELYCEKHAR", "note": "[G20Q]", "abundance fitness": "-0.56 ± 0.22"},
      {"variant": "HTCEKCSTSIANQAVRIQEHRYRHPGCYTCADCGLNLKMRGHFWVGDELYCEKHAR", "note": "[G20H]", "abundance fitness": "-0.119 ± 0.067"},
      {"variant": "HTCEKCSTSIANQAVRIQECRYRHPGCYTCADCGLNLKMRGHFWVGDELYCEKHAR", "note": "[G20C]", "abundance fitness": "-0.339 ± 0.071"},
      {"variant": "HTCEKCSTSIANQAVRIQEIRYRHPGCYTCADCGLNLKMRGHFWVGDELYCEKHAR", "note": "[G20I]", "abundance fitness": "-0.257 ± 0.091"},
      {"variant": "HTCEKCSTSIANQAVRIQESRYRHPGCYTCADCGLNLKMRGHFWVGDELYCEKHAR", "note": "[G20S]", "abundance fitness": "-0.29 ± 0.087"},
      {"variant": "HTCEKCSTSIANQAVRIQRGRYRHPGCYTCADCGLNLKMRGHFWVGDELYCEKHAR", "note": "[E19R]", "abundance fitness": "-0.12 ± 0.064"},
      {"variant": "HTCEKCSTSIANQAVRIQMGRYRHPGCYTCADCGLNLKMRGHFWVGDELYCEKHAR", "note": "[E19M]", "abundance fitness": "-0.163 ± 0.13"},
      {"variant": "HTCEKCSTSIANQAVRIQPGRYRHPGCYTCADCGLNLKMRGHFWVGDELYCEKHAR", "note": "[E19P]", "abundance fitness": "-0.211 ± 0.11"},
      {"variant": "HTCEKCSTSIANQAVRIQTGRYRHPGCYTCADCGLNLKMRGHFWVGDELYCEKHAR", "note": "[E19T]", "abundance fitness": "-0.068 ± 0.14"},
      {"variant": "HTCEKCSTSIANQAVRIQYGRYRHPGCYTCADCGLNLKMRGHFWVGDELYCEKHAR", "note": "[E19Y]", "abundance fitness": "-0.549 ± 0.089"},
      {"variant": "HTCEKCSTSIANQAVRIQWGRYRHPGCYTCADCGLNLKMRGHFWVGDELYCEKHAR", "note": "[E19W]", "abundance fitness": "-0.624 ± 0.19"},
      {"variant": "HTCEKCSTSIANQAVRIQVGRYRHPGCYTCADCGLNLKMRGHFWVGDELYCEKHAR", "note": "[E19V]", "abundance fitness": "-0.495 ± 0.093"},
      {"variant": "HTCEKCSTSIANQAVRIQNGRYRHPGCYTCADCGLNLKMRGHFWVGDELYCEKHAR", "note": "[E19N]", "abundance fitness": "-0.453 ± 0.18"},
      {"variant": "HTCEKCSTSIANQAVRIQSGRYRHPGCYTCADCGLNLKMRGHFWVGDELYCEKHAR", "note": "[E19S]", "abundance fitness": "-0.197 ± 0.098"},
      {"variant": "HTCEKCSTSIANQAVRIQHGRYRHPGCYTCADCGLNLKMRGHFWVGDELYCEKHAR", "note": "[E19H]", "abundance fitness": "-0.292 ± 0.15"},
      {"variant": "HTCEKCSTSIANQAVRIQQGRYRHPGCYTCADCGLNLKMRGHFWVGDELYCEKHAR", "note": "[E19Q]", "abundance fitness": "-0.071 ± 0.13"},
      {"variant": "HTCEKCSTSIANQAVRIQKGRYRHPGCYTCADCGLNLKMRGHFWVGDELYCEKHAR", "note": "[E19K]", "abundance fitness": "0.01 ± 0.07"},
      {"variant": "HTCEKCSTSIANQAVRIQLGRYRHPGCYTCADCGLNLKMRGHFWVGDELYCEKHAR", "note": "[E19L]", "abundance fitness": "-0.237 ± 0.064"},
      {"variant": "HTCEKCSTSIANQAVRIQFGRYRHPGCYTCADCGLNLKMRGHFWVGDELYCEKHAR", "note": "[E19F]", "abundance fitness": "-0.672 ± 0.18"},
      {"variant": "HTCEKCSTSIANQAVRIQDGRYRHPGCYTCADCGLNLKMRGHFWVGDELYCEKHAR", "note": "[E19D]", "abundance fitness": "-0.374 ± 0.14"},
      {"variant": "HTCEKCSTSIANQAVRIQGGRYRHPGCYTCADCGLNLKMRGHFWVGDELYCEKHAR", "note": "[E19G]", "abundance fitness": "-0.375 ± 0.1"},
      {"variant": "HTCEKCSTSIANQAVRIQEGRNRHPGCYTCADCGLNLKMRGHFWVGDELYCEKHAR", "note": "[Y22N]", "abundance fitness": "-0.32 ± 0.1"},
      {"variant": "HTCEKCSTSIANQAVRIQEGRTRHPGCYTCADCGLNLKMRGHFWVGDELYCEKHAR", "note": "[Y22T]", "abundance fitness": "-0.477 ± 0.11"},
      {"variant": "HTCEKCSTSIANQAVRIQEGRARHPGCYTCADCGLNLKMRGHFWVGDELYCEKHAR", "note": "[Y22A]", "abundance fitness": "-0.269 ± 0.09"},
      {"variant": "HTCEKCSTSIANQAVRIQEGRKRHPGCYTCADCGLNLKMRGHFWVGDELYCEKHAR", "note": "[Y22K]", "abundance fitness": "-0.311 ± 0.14"},
      {"variant": "HTCEKCSTSIANQAVRIQEGRCRHPGCYTCADCGLNLKMRGHFWVGDELYCEKHAR", "note": "[Y22C]", "abundance fitness": "-0.348 ± 0.12"},
      {"variant": "HTCEKCSTSIANQAVRIQEGRRRHPGCYTCADCGLNLKMRGHFWVGDELYCEKHAR", "note": "[Y22R]", "abundance fitness": "-0.333 ± 0.094"},
      {"variant": "HTCEKCSTSIANQAVRIQEGRGRHPGCYTCADCGLNLKMRGHFWVGDELYCEKHAR", "note": "[Y22G]", "abundance fitness": "-0.411 ± 0.08"},
      {"variant": "HTCEKCSTSIANQAVRIQEGRIRHPGCYTCADCGLNLKMRGHFWVGDELYCEKHAR", "note": "[Y22I]", "abundance fitness": "-0.691 ± 0.23"},
      {"variant": "HTCEKCSTSIANQAVRIQEGRWRHPGCYTCADCGLNLKMRGHFWVGDELYCEKHAR", "note": "[Y22W]", "abundance fitness": "-0.014 ± 0.11"},
      {"variant": "HTCEKCSTSIANQAVRIQEGRLRHPGCYTCADCGLNLKMRGHFWVGDELYCEKHAR", "note": "[Y22L]", "abundance fitness": "-0.349 ± 0.087"},
      {"variant": "HTCEKCSTSIANQAVRIQEGRHRHPGCYTCADCGLNLKMRGHFWVGDELYCEKHAR", "note": "[Y22H]", "abundance fitness": "-0.398 ± 0.22"},
      {"variant": "HTCEKCSTSIANQAVRIQEGRVRHPGCYTCADCGLNLKMRGHFWVGDELYCEKHAR", "note": "[Y22V]", "abundance fitness": "-0.321 ± 0.066"},
      {"variant": "HTCEKCSTSIANQAVRIQEGRFRHPGCYTCADCGLNLKMRGHFWVGDELYCEKHAR", "note": "[Y22F]", "abundance fitness": "0.108 ± 0.076"},
      {"variant": "HTCEKCSTSIANQAVRIQEGRSRHPGCYTCADCGLNLKMRGHFWVGDELYCEKHAR", "note": "[Y22S]", "abundance fitness": "-0.292 ± 0.053"},
      {"variant": "HTCEKCSTSIANQAVRIQEGRPRHPGCYTCADCGLNLKMRGHFWVGDELYCEKHAR", "note": "[Y22P]", "abundance fitness": "-0.496 ± 0.14"},
      {"variant": "HTCEKCSTSIANQAVRIQEGRQRHPGCYTCADCGLNLKMRGHFWVGDELYCEKHAR", "note": "[Y22Q]", "abundance fitness": "-0.02 ± 0.076"},
      {"variant": "HTCEKCSTSIANQAVRIQEGRMRHPGCYTCADCGLNLKMRGHFWVGDELYCEKHAR", "note": "[Y22M]", "abundance fitness": "-0.532 ± 0.13"}
    ]}
  ]
}
